From patent US6291247A, “Methods of screening for factors that disrupt neurotrophin conformation and reduce neurotrophin biological activity” (priority 1996, dated 2001)
“Also recorded” adds a separate entry of the source. Bridges are numbered along the chain shown (N, C = ends).

Key:
NGF dimer = NGF dimer stability by non-reducing gel electrophoresis; set-up: species or system mouse
Experimental: For conformation and dimer integrity studies, 0.1 nM ^125 I-NGF was incubated in the presence or absence of Zn^2+ in HKR buffer for 2 hours at 4° C. in a total volume of 0.1 ml. For crosslinking NGF […], 0.4 mM BS^3 was added to the mixture and incubated for 30 minutes at 25° C. The reaction was quenched with reducing SDS PAGE sample buffer, electrophoresed using a linear 15% acrylamide gel and autoradiographed. To assess the dimeric nature of NGF in the presence of Zn^2+, ^125 I-NGF was electrophoresed in a non-reducing SDS PAGE system as described, autoradiographed, and the labelled proteins excised from the gels and counted. For CD studies, NGF (50 μg/ml) was dissolved in 50 mM Tris-HCl buffer and spectra recorded using a computer controlled Jasco J-600 spectropolarimeter. Samples were acquired in the absence or presence of Zn^2+ (100 μM) at 22° C. in a 2 mm quartz cell averaged over eight scans. Modification of His residues by DEPC was carried out as previously described, where the molar excess of DEPC added and the extent of reaction was determined by evaluating the loss of binding activity of the modified product.

NGF = target: T1, NGF (Mus musculus, UniProt P01139); assay: Cross-linking of NGF protomers in a cell-free system (Example 6); type: biochemical
T1 construct: homodimer
T1 sequence (P01139 122-239): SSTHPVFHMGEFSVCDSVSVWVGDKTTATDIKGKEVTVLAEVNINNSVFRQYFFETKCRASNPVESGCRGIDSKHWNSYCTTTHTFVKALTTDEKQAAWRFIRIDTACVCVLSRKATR
Source text: That is, under denaturing conditions, NGF normally dissociates and electrophoreses as a monomer (FIG. 8, lane 1). In contrast, native NGF dimers that had been covalently cross-linked by BS^3 were unable to dissociate and were resolved from free monomer as a more slowly migrating band on the gel (FIG. 8, lane 2).

DRG neurons = assay: Survival of chick DRG neurons at 24 hours; type: cell-based; conditions: 500 μM
TrkA = target: T2, TrkA; assay: Affinity cross-linking of 125I-NGF to TrkA on PC12 cells; type: binding, rat; conditions: 200 μM; result in words
T2 construct: Receptor cross-linking studies were performed on PC12 rat pheochromocytoma cells; endogenous in cells; host or cells: PC12 rat pheochromocytoma cells (ATCC CRL 1721)
T2 sequence (P01139 122-239): as above
Experimental: The ability of the peptides under study to interfere with binding of NGF to NGF receptors was evaluated by analysis of inhibition of the chemical cross-linking of ^251 I-NGF to the common neurotrophin receptor p75 (Chao, J. Neurobiol. 25:1373-1385 (1994)) and the specific NGF receptor TrkA (Barbacid, J. Neurobiol. 25: 1386-1403 (1994)). Immunoprecipitation and polyacrylamide gel electrphoresis of cross linked receptors allowed identification of both receptors, as shown in FIG. 7A. […] At concentrations of 200 μM, neither R11(l) nor R11(m) were able to inhibit greater than 50% of the observed ^125 I-labelling.
The ability of the peptides derived from the 68-58/108-110 region of NGF to antagonize NGF interaction with the p75 and TrkA receptors was determined The peptides tested were bicyclic (BC) 68-58/108-110, cyclic (C) 68-58/108-110, and linear (L) 68-58/108-110, each of which are illustrated in FIGS. 2 and 5D
Receptor cross-linking studies were performed on PC12 rat pheochromocytoma cells (ATCC CRL 1721; Greene et al., Proc. Natl. Acad. Sci. USA 73: 2424-2432 (1976)) which were maintained in RPMI1640 (Gibco) supplemented with 10% fetal calf serum (Gibco). […]

| Compound | Percentage of NGF migrating as a dimer in non-reducing gel electrophoresis (NGF dimer) | NGF protomer cross-linking to BSA (NGF; 100 μM R11) | Cross-linking of NGF promoters by BS3 (NGF; 100 μM R11, cell-free) | Survival of neurons at 24 hours (DRG neurons) | Covalent attachment of 125I-NGF to receptor (TrkA) (TrkA) |
| --- | --- | --- | --- | --- | --- |
| [Zn+2] [Zn^2+] | No change |  |  |  |  |
| NH2 -Cys-Gly-Ser-Glu-Val-Pro-Asn-Ser-Ala-Arg-Cys-Cys-Val-Cys-OH (H-CGSEVPNSARCCVC-OH; disulfide 1-14, 11-12) [R11, bicyclic peptide of NGF residues 68-58/108-110, two disulfide bonds] |  | increased dramatically | reduced almost to the point of elimination; also recorded: loss of NGF dimer | not influenced | effectively prevented the covalent attachment |
